T1: Tribbles pseudokinase 2 (TRIB2), AcGFP1 fusion in HEK 293 cells (pAcGFP1-TRIB2) (bovine, UniProt Q5GLH2 1-343)
T1 construct: bovine TRIB2 (NM_178317.3); also called TRIB2 bait plasmid; source: HEK 293, transfected, in lysate
T1 sequence (looked up): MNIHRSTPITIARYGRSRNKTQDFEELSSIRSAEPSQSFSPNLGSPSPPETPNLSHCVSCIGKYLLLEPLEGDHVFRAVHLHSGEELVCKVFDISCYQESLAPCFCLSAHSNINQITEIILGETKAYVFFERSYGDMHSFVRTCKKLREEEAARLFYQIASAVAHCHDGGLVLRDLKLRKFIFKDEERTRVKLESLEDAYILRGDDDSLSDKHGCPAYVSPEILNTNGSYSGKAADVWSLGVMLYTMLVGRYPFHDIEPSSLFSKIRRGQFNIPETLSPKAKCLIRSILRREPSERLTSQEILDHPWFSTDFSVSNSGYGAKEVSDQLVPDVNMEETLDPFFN


Experiments:
[1] = molecular target: pAcGFP1-53 (positive control bait) (UniProt P02340); experiment: co-IP; Matchmaker Co-IP system in co-transfected HEK 293 cells (pAcGFP1 bait, ProLabel prey); read-out by ProLabel enzyme complementation, luminescence (RLU); fold induction 60 min after substrate against the experimental control (pAcGFP1-TRIB2 and ProLabel-empty vector)
pAcGFP1-53 (positive control bait), sequence (P02340 whole entry): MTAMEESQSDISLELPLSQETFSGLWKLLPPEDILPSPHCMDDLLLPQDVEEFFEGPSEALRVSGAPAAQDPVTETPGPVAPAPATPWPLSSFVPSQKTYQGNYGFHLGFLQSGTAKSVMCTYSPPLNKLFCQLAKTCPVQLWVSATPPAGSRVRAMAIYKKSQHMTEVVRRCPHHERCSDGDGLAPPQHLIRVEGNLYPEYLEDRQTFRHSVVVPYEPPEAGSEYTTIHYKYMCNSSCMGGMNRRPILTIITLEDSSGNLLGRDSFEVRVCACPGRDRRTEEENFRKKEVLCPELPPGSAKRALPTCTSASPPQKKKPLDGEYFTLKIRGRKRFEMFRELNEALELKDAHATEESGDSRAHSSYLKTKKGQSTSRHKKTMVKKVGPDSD

[2] = molecular target: T1, Tribbles pseudokinase 2 (TRIB2), AcGFP1 …; experiment: as above; details: partners not purified

| fold induction of ProLabel enzymatic activity against the experimental control [2] [fold] | Molecule | fold induction of ProLabel enzymatic activity against the experimental control [1] [fold] |
| --- | --- | --- |
|  | ProLabel-T (positive control prey) (natural protein) | 4.7 |
| 2.3 | inositol polyphosphate phosphatase-like 1 (INPPL1), ProLabel prey in HEK 293 cells (natural protein, Bos taurus, UniProt E1BBJ7 1-1264, looked up, Bos taurus inositol polyphosphate phosphatase-like 1; Bands at around 50 kDa and 100 kDa after co-IP, around 160 kDa in extracts not subjected to co-IP; The insert may be the cDNA fragment found in the two-hybrid screen; also called SHIP2; SH2-containing inositol 5'-phosphatase 2; source: HEK 293, transfected, in lysate) MASACGAPGPGGAGPGAALGSPAPAWYHRDLSRAAAEELLARAGRDGSFLVRDSESVAGAFALCVLYQKHVHTYRILPDGEDFLAVQTSQGVPVRRFQTLGELISLYAQPNQGLVCALLLPVEREREPDPPDDRDASDGEDEKPPLPPRSGSTSISAPMGPSSPPAAPETPTTPAAESAPNGLSTVSHEYLKGSYGLDLEAVRGGASNLPHLTRTLATSCRRLHSEVDKVLSGLEILSKVFDQQSSPMVTRLLQQQNPPQTGEQELESLVLKLSVLKDFLSGIQKKALKALQDMSSTAPPAPLQPSTRKAKTIPVQAFEVKLDVTLGDLTKIGKSQKFTLSVDVEGGRLVLLRRQRDSQEDWTTFTHDRIRQLIKSQRVQNKLGVVFEKEKDRTQRKDFIFVSARKREAFCQLLQLMKNKHSKQDEPDMISIFIGTWNMGSVPPPKNVTSWFTSKGLGKTLDEVTVTIPHDIYVFGTQENSVGDREWLDLLRGGLKELTDLDYRPIAMQSLWNIKVAVLVKPEHENRISHVSTSSVKTGIANTLGNKGAVGVSFMFNGTSFGFVNCHLTSGNEKTARRNQNYLDILRLLTLGDRQLSAFDISLRFTHLFWFGDLNYRLDMDIQEILNYISRKEFEPLLRVDQLNLEREKHKVFLRFSEEEISFPPTYRYERGSRDTYAWHKQKPTGVRTNVPSWCDRILWKSYPETHIICNSYGCTDDIVTSDHSPVFGTFEVGVTSQFISKKGLSKTSDQAYIEFESIEAIVKTASRTKFFIEFYSTCLEEYKKSFENDAQSSDNINFLKVQWSSRQLPTLNPILADIEYLQDQHLLLTVKSMDGYESYGECVVALKSMIGSTAQQFLTFLSHRGEETGNIRGSMKVRVPTERLGTRERLYEWISIDKDEAGAKSKAPSVSRGSQDPRSGSRKPASTEASCPLSKLFEEPEKPPPTGRPPAPPRAAPREEPLTPRLKPEGAPELEGVVAPPPKNSFNNPAYYVLEGVPHQLLPPEPPSPARAPVPPATKNKVAITVPAPQLGRHRPPRAGEGSSSDEDSGGTLPPPDFPPPPLPDSAIFLPPGLDPLPGPVIRGRSGGEARGPPPPKAHPRPPLPPGPSPASTFLGDVASGDDRSCSVLQMAKTLSEVDYAPAGPGRAMLLPGPLELQPPRGLPSDYGRPLSFPPPRIRESIQEDLAEEAPCPQVGRAGGLGEAGMGAWLRAIGLERYEEGLVHNGWDDLEFLSDITEEDLEEAGVQDPAHKRLLLDTLQLSK |  |
| 9.2 | inhibin subunit beta A (INHBA), ProLabel prey in HEK 293 cells (natural protein, Bos taurus, UniProt P07995 21-425, looked up, Bos taurus inhibin subunit beta A; Seen at around 50 kDa after co-IP and at 44 kDa in extracts not subjected to co-IP; The insert may be the cDNA fragment found in the two-hybrid screen; source: HEK 293, transfected, in lysate) SPTPGSEGHSAAPDCPSCALATLPKDVPNSQPEMVEAVKKHILNMLHLKKRPDVTQPVPKAALLNAIRKLHVGKVGENGYVEIEDDIGRRAEMNELMEQTSEIITFAESGTARKTLHFEISKEGSDLSVVERAEIWLFLKVPKANRTRSKVTIRLFQQQKHLQGSLDAGEEAEEVGLKGEKSEMLISEKVVDARKSTWHIFPVSSCIQRLLDQGKSSLDIRIACEQCQETGASLVLLGKKKKKEEEGEGKKRDGEGGAGGDEEKEQSHRPFLMLQARQSEDHPHRRRRRGLECDGKVNICCKKQFFVSFKDIGWNDWIIAPSGYHANYCEGECPSHIAGTSGSSLSFHSTVINHYRMRGHSPFANLKSCCVPTKLRPMSMLYYDDGQNIIKKDIQNMIVEECGCS |  |
